Among the data in patent US20120316071A1 (published 2012) are ECL signal/noise ratio and ECL signal values, retold here.

Test [1] deals with T1, rHuman EGF R/Fc Chimera, CF (R&D Systems Cat#344-ER) (human, UniProt P00533 25-645).
T1 construct: Bought recombinant protein; Fc part of the bought chimera not given
Kind of test: ECL multispot (MSD) assay, spotted antigen; Fab 200.00 (head prints uM).

The target in test [2] is T2, rHuman P-Cadherin/Fc Chimera, CF (R&D Systems Cat#861-PC) (human, UniProt P22223 108-654).
T2 construct: Bought recombinant protein; Fc part of the bought chimera not given
Described as above.

Test [3] deals with T3, rHuman IGF-1 sR, CF (R&D Systems Cat#391-GR) (human, UniProt P08069 31-932).
T3 construct: Bought soluble receptor; The column head prints only 'IGF-1'; also called insulin-like growth factor-1 soluble receptor
The test is described as above.

Test [4] concerns the target T4, rHuman HGF R/c-MET/Fc Chimera, CF (R&D Systems Cat#358-MT/CF) (human, UniProt P08581 25-932).
T4 construct: Bought recombinant protein; also called HGF R/Fc; Fc part of the bought chimera not given
Described as above.

Test [5] deals with T5, rHuman Notch-1/Fc Chimera, CF (R&D Systems Cat#3647-TK) (human, UniProt P46531 19-526).
T5 construct: Bought recombinant protein; Fc part of the bought chimera not given
The test is described as above.

For test [6], the target named is T6, rHuman Erythropoietin R/Fc Chimera, CF (R&D Systems Cat#963-ER) (human, UniProt P19235 25-250).
T6 construct: Bought recombinant protein; also called EPO R; EPO R/Fc; Fc part of the bought chimera not given
T6 sequence (looked up): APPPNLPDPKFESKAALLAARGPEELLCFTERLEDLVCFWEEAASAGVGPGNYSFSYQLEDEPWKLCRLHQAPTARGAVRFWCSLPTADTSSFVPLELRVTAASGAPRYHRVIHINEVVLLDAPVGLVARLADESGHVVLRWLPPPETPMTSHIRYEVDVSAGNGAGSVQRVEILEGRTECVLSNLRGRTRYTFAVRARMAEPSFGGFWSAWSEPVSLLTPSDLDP
Described as above.

Test [7] has as its target T7, Recombinant Human DLL4 (R&D Systems Cat#1506-D4/CF) (human, UniProt Q9NR61 27-524).
T7 construct: Bought recombinant protein; also called delta-like protein 4
Described as above.

Test [8] has as its target T8, rHuman CD44/Fc Chimera, CF (R&D Systems Cat#3660-CD) (human, UniProt P16070 21-220).
T8 construct: Bought recombinant protein; Fc part of the bought chimera not given
The description is as above.

Test [9] addresses T9, rHuman ErbB2/Fc Chimera, CF (R&D Systems Cat#1129-ER) (human, UniProt P04626 23-652).
T9 construct: Bought recombinant protein; Fc part of the bought chimera not given
Described as above.

Test [10] has as its target T10, rHuman IGF-1 sR, CF (R&D Systems Cat#391-GR) (human, UniProt P08069 31-932).
T10 construct: Bought recombinant soluble receptor; also called insulin-like growth factor-1 soluble receptor
Kind of test: Multispot ECL (MSD), antigen spotted on plate, Fab 15.6 nM; blank spot 294.

For test [11], the target named is T11, rHuman Erythropoietin R/Fc Chimera, CF (R&D Systems Cat#963-ER) (human, UniProt P19235 25-250).
T11 construct: Bought recombinant protein; also called EPO R/Fc; Epo R; Fc part of the bought chimera not given
T11 sequence (looked up): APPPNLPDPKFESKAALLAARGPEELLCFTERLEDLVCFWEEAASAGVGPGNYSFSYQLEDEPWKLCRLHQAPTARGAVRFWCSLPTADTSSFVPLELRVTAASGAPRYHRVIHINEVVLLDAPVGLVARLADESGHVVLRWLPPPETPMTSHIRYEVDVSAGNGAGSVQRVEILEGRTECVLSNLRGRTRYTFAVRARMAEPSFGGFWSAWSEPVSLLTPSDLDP
The test is described as above.

The target of test [12] is T12, Recombinant Human DLL4 (R&D Systems Cat#1506-D4/CF) (human, UniProt Q9NR61 27-524).
T12 construct: Bought recombinant protein; also called rHuman DLL4; delta-like protein 4
The description is as above.

Test [13] concerns the target T13, rHuman Notch-1/Fc Chimera, CF (R&D Systems Cat#3647-TK) (human, UniProt P46531 19-526).
T13 construct: Bought recombinant protein; Fc part of the bought chimera not given
Described as above.

Test [14] deals with T14, rHuman Erythropoietin R/Fc Chimera, CF (R&D Systems Cat#963-ER) (human, UniProt P19235 25-250).
T14 construct: Bought Fc chimera; also called EPO R/Fc; EPO R; Fc part of the bought chimera not given
T14 sequence (looked up): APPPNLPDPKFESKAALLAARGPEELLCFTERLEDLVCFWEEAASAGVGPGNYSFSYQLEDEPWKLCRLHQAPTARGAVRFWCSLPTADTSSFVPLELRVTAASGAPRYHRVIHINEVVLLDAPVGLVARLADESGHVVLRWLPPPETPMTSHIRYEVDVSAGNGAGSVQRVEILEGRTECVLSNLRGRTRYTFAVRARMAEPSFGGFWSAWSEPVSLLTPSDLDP
Kind of test: Multispot ECL (MSD) titration; antigen spotted on plate; Fab 58.1 nM; blank spot 225.

The target of test [15] is T15, rHuman P-Cadherin/Fc Chimera, CF (R&D Systems Cat#861-PC) (human, UniProt P22223 108-654).
T15 construct: Bought Fc chimera; Fc part of the bought chimera not given
Described as above.

In test [16] the target is T16, rHuman IGF-1 sR (IGF-1 sR), CF (R&D Systems Cat#391-GR) (human, UniProt P08069 31-932).
T16 construct: Bought soluble receptor; also called insulin-like growth factor-1 soluble receptor
Described as above.

In test [17] the target is T17, Recombinant Human DLL4 (R&D Systems Cat#1506-D4/CF) (human, UniProt Q9NR61 27-524).
T17 construct: Bought recombinant protein; also called delta-like protein 4; rHuman DLL4
The description is as above.

In test [18] the target is T18, rHuman CD44/Fc Chimera, CF (R&D Systems Cat#3660-CD) (human, UniProt P16070 21-220).
T18 construct: Bought Fc chimera; Fc part of the bought chimera not given
The test is described as above.

Test [19] deals with T19, rHuman Notch-1/Fc Chimera, CF (R&D Systems Cat#3647-TK) (human, UniProt P46531 19-526).
T19 construct: Bought Fc chimera; Fc part of the bought chimera not given
Described as above.

T4 sequence (P08581 25-932, change not shown): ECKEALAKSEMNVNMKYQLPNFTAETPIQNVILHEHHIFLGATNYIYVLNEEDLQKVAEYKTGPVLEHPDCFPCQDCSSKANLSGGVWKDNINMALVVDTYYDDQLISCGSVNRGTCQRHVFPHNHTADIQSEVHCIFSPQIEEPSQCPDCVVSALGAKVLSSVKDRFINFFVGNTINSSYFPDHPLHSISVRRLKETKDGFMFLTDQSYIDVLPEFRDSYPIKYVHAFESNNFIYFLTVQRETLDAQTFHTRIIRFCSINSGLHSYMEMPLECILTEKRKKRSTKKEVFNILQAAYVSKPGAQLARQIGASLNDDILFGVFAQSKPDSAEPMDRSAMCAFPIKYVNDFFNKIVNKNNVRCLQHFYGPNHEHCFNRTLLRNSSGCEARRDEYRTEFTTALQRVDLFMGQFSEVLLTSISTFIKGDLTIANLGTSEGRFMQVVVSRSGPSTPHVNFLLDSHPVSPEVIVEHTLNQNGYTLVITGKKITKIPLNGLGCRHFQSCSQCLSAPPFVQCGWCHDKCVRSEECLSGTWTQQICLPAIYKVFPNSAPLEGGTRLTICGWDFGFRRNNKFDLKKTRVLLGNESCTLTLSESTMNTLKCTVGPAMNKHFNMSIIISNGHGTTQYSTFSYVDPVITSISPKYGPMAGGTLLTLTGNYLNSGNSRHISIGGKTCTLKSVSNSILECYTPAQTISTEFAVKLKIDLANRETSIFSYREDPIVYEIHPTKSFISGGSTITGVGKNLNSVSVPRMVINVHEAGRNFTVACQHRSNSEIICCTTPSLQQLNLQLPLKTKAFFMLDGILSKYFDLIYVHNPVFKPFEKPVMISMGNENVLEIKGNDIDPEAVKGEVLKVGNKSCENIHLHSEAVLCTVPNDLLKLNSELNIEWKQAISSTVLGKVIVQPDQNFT

B1: Fab VH5-51_IGHD5-18*01>3_IGHJ4*01 G100K/G104T & V3-4_IGLJ1*01 (Fab, V domains shown)
VH: EVQLVQSGAEVKKPGESLKISCKGSGYSFTSYWIGWVRQMPGKGLEWMGIIYPGDSDTRYSPSFQGQVTISADKSISTAYLQWSSLKASDTAMYYCARRKYSYTYDYFDYWGQGTLVTVSS
VL: QTVVTQEPSFSVSPGGTVTLTCGLSSGSVSTSYYPSWYQQTPGQAPRTLIYSTNTRSSGVPDRFSGSILGNKAALTITGAQADDESDYYCVLYMGSGISYVFGTGTKVTVL
notes: Tested as a Fab; The constant parts are the same as for the parent Fab (CH1 with His6/Flag tags, lambda CL); also called KT double mutant; H:KT
In the case of B1, the ECL signal/noise ratio in test [1] was 1.6; in test [2], 2; in test [3], 1.5; in test [4], 1.7; in test [5] it was 1.7; in test [6], 1.7. Further, the ECL signal/noise ratio in [7] stood at 76.9; in test [8], 1.4; in test [9], 1.7.

B2: Fab VH1-46_IGHD6-13*01_IGHJ4*01 & B3_IGKJ1*01 (Fab, V domains shown)
VH: QVQLVQSGAEVKKPGASVKVSCKASGYTFTSYYMHWVRQAPGQGLEWMGIINPSGGSTSYAQKFQGRVTMTRDTSTSTVYMELSSLRSEDTAVYYCAREGYSSSWYDYFDYWGQGTLVTVSS
VL: not shown
notes: Germline Fab made in E. coli; VH was cloned into Plasmid A (CH1, His6 and Flag tags) and the kappa VL into Plasmid C (kappa CL)
Regarding B2, the ECL signal in test [10] was 349; in test [11] it was 8360; in test [12], 525; in test [13], 418.

B3: Fab VH1-46_IGHD6-13*01_IGHJ4*01 & O1_IGKJ1*01 (Fab, V domains shown)
VH: QVQLVQSGAEVKKPGASVKVSCKASGYTFTSYYMHWVRQAPGQGLEWMGIINPSGGSTSYAQKFQGRVTMTRDTSTSTVYMELSSLRSEDTAVYYCAREGYSSSWYDYFDYWGQGTLVTVSS
VL: DIVMTQTPLSLPVTPGEPASISCRSSQSLLDSDDGNTYLDWYLQKPGQSPQLLIYTLSYRASGVPDRFSGSGSGTDFTLKISRVEAEDVGVYYCMQRIEFPSWTFGQGTKVEIKR
notes: Germline library Fab expressed in E. coli; VH was cloned into Plasmid A (CH1 constant region, His6 and Flag tags); The kappa VL was cloned into Plasmid C (kappa CL)
As for B3, the ECL signal in [14] came out at 829; in test [15] it was 478; in [16] it was 343; in [17], 1880; in [18] it was 375; in [19] it was 388.
